Experimental data reported in the nanobody polyreactivity screen of Harvey et al. (2022).

experiment: yeast display, Sf9 membrane polyspecificity reagent, FACS + sequencing; frameworks hold sequencing errors
In short: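 A synthetic nanobody library was expressed on Saccharomyces cerevisiae BJ5465 by galactose induction for 36–48 hours. The library was stained for 1 hour at 4 °C with 10% biotinylated, detergent-solubilized Sf9 membrane reagent and enriched with streptavidin microbeads before FACS. Low and high (top ~1%) gates were set on anti-HA fluorescence for expression and streptavidin fluorescence for reagent binding, and each polyreactivity label reflects the gate of origin.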

Row | Sequence | polyreactivity (PSR sort gate)
1 | QVQLVDSGGGLVQAGGSLRLSCGASGRIFPYNAMGWYRQAPGKERELVAAINWSGGSTYYADSVKGRFTISRDTAKNTVYLQMNSLKPEDTAVYYCAVKTVRSSSRNYWRQGTQVTVSS | high polyreactivity
2 | QVQLVESGGGLVQAGGSLRLSCAASGHIFNYYAMGWYRQAPGKERELVAAIRSGARTSYADSVKGRFTISRDNAKNTVNLQMNSLKPEDTAVYYCAAVGVAYLYPSDYWGQGTQVPVSS | high polyreactivity
3 | QVQLVESGGGLVQAGGSLRLSCAASGFTFARNVMGWYRQAPGKERELVAAITTSGGSTYYADSVKGRFTISRDNAKNTVYLQMKSLKPEDTAVYYCARRVYGYYIPYNYWGQGTQVTVSS | high polyreactivity
4 | QFQLVESGGGLVQAGGSLRLSCAASGSIIWWNAMGWYRQAPGKERELVASIGDSTYYADSVKGRFTISRDNAKNTVYLQMNSLKPEDTAVYYCNAEVLNYLVFGYQLGYDYWGQGTQVTVSS | low polyreactivity
5 | QVQLVESGGGLVQAGGSLRLSCAASGRTFYFYTLGWYRQAPGKERELVAAISWSGGSTYSADSVKGRFTISRDNAKNTVYLQLNSLKPEDTAVYYCAASSPWEQSNDQFYYWGQGTQVTVSS | low polyreactivity
6 | QVQLVESGGGLVQAGGSLRLSCAASGSTIYFNAMGRYRQAPGKERELAAGIRSSGGSTYYADSVKGRFTISRDNAKNTVYLQMISLKPEDTAVYYCAGVRYRELYWGQGTQVTVSS | high polyreactivity
7 | QVQLVESGGGLVQAGGSLRLSCAASGRTFYRNAMGWYRQAPGKDRELVAAISSGGSTTYADSVKGRFTISRDNAKNTVFFQMNSLKPEATAVYYCAARSHAGSVSPRLKEYDYWGQGTLVTVSS | low polyreactivity
8 | QVQLVDSGGGLVQAGGSLRLSCAASGRIFYYYAMGWYRQAPGKEREFVAAINSRDGSTNYADSVKGRFTISRDNAKNTVYLQMNSLKPEDTAVYYCAAEGYRSWRGLRSRYYYWGQGTQVTVSS | high polyreactivity
9 | QVQLVESGGGLVQAGGSLRLSCAASGFIFGRYAMGWYRQAPGKERELVARITGIGTRTYYADSVKGRFTISRDNAKNTVYLQMNSLKPEDTAVYYCAVRPFYWGQGTQVTVSS | high polyreactivity
10 | QVQLVESGGGLVQAGGSLRLSCAASGRIITAYYAMGWSRQAPGKERELVASISSSGTSTYADSVKGRFTISRDNAKNTVYLQMNSLKPEDTAVYYCATRKLRTRRYDYGYWGQGTQVTVSS | low polyreactivity
11 | QVQLVESGGGLVQAGGSLRLSCAASGSTFGVYAMGWYRQAPGKERELVAAITKRGGDTYYADSVKGRFTISRDNAKNTVYLQMNSLKPEDTAVYYCAAGLYVSYYWYDYWGQGTQVTVSS | high polyreactivity
12 | QVQLVESGGGLVQAGGSLRLICAASGSTITLYAMGWYRQAPGKERELVAAISGIGDSTYYADSVKGRFTISRDNAKNTVYLQMNSLKPEDTAVYYCAADGEYRYDWEYESWGQGTQLTVSS | low polyreactivity
13 | QVHLVESWGGLVQAGGSLRLSCAASGSTFSDYAMGWYRQAPGKERELVAGITGGGGTYYADSVKGRFTISRDNAKNTVSLHMNSLTPEDTARYYCAAGRRHGFGYWGQGTQVTVSS | low polyreactivity
14 | QVQLVESGGGIVQAGGRLRLSCAASGFTCARNVMGWYRQAPGKERELVAAITTSGGSTYYADSVKGRFTISRDNAKNTVSLQMNSLKPEDTAGYYCARRVYGYYIPYNYWGQGTQVTVSS | high polyreactivity
15 | QVQLVESGGGLVQAGGSLRLSCAASGRTFGKYAMGWYRQAPGKERELVAAISSGGTTYYADSVKGRFTISRDNAKNTVYLQMNSLKPEDTAVYYCAADPRYPYNYWGQGTQVTVSS | low polyreactivity
16 | QVQLVESGGGLVQAGGSLRLSCAASGFNFASYAMGWYRQAPGKERELVAAISWRGGSTYYADSVKGRFTISRDNAKNTVYLQMNSLKPEDTAVYYCNAYVYVGTGRGYDTLDYWGQGTQVTLSS | low polyreactivity
17 | QVQLVESGGGLVQAGGSLRLSCAASGRIFPYYAMGWYRQAPGKERELVASTNYADSVKGRFTISRDNAKNTVYLQMNSLKPEDTAVYYCAADGYRYSVYLIRNPMDYWGQGTQVTVSS | low polyreactivity
18 | QVQLVESGGGLVQAGGSLRLSCAASGRTSRSYTMGWYRQSPGKERELVAAITRGGRTYYADSVKGRFTISRDNAKNTVYLQMNSLKPEDTAVYYCATDRVQSYGYWGQGTQVTVSS | low polyreactivity
19 | QVQLVESGGGLVQAGGSLRLICAASGRIIPSYSMGWYRQAPAKEREFVAVIRSSVDGTYYADSVKGRFTISRDYAKNTVYLHMNSLNPDDTSVYYFSADSYPFFIRNLYPVLEGEYGHWGQGTQVNVSS | low polyreactivity
20 | QVQLVESGGGLVQAGGSLGLSCAASGRTFTPYAMGWYRQAPGIERELVAAIDTSGGSTYADSVKGRFTMSRDNAKNTVYLQMNSLKQEDTAVYYCNVDSAWYPYETEDDWGQGTQVTVSS | low polyreactivity
21 | QVQLVESGGGLVQAGGSLRLSFAASGRTFIGYAMGWSRQAPGKERELVAGISWSGGSTYYADSVKGRFTISRDNAKNTVYLQMNSLKPEDTAVYFCAARGRWSTEYRYWGQGTQVTVSS | low polyreactivity
22 | QVQLVESGGGKVQAGGSLRLSCPPSGRTFYYYAMGWYRQAPGKVRELVAVIRSSGDSTYYADSVKGRFTISRDNEKNTVYLQMKSLKPDDTAVDYCAADAPSRSYSWHPRYYYWGQGSQVTVSS | low polyreactivity

Row | Sequence | polyreactivity (PSR sort gate)
23 | QVQLVESGGGIVQAGGSLRLSCAASGGTFPRYAKGWYRQAPGKEREFVAAISGSGGSTYYADSVKGRFTISRDNAKNTVLLQMNSLKPEDTAVYYCNKVPVYTPSYYWGQGSQVTVSS | low polyreactivity
24 | QVQLVESGGGLVQAGGSLRLSCAASGFTFSSYAMGWYRQAPGKERELVAAITISGGRTYYSDSVKGRFTISRDNAKNTVYLQMNSLKPEDTAVYYCNTDYGRRYDYWGQGTQVTVSS | high polyreactivity
25 | QDQLVESGGGLVQAGGSLRVSCAASGSIFAWYAMGWYRQAPGKDRELVAVITRGGSTNYADSVKGRFTISRDNAKKTVYLQMNSLKPEDTAVYYCAAGSYYSWYPFDYWGQGTQVTVSS | low polyreactivity
26 | QVQLVESGGGLVQAGGRLRLSCAATGRTFSYNAMGWYRQAPGKERELVAAITTNSGSRTYYADSVKGRFTISRDNAKNTVYLQMNSLKPEDTAVYYCAADGPVVSGYYWGQGTQVTVSS | high polyreactivity
27 | QVQLVESGGGLVQAGGSRSLSCAASGRTFTLNVMGWYRQAPGKERELVAAISTSSGRTYYADSVKGRFTISRDNAKNTVYLQMNSLKPEDTAVYYCNAVAHRQAQGDWGQGTQVTVSS | low polyreactivity
28 | QVQLVESGGGLLQAGGSLRLSCAASGSIFRLNAMGWYRQAPGKERELVATINYSGDSTYYADSVKGRFTISRDNAKNTVYLQMNSLKPEDTAVYFCATDYGWYDYWGQGTQVTVSS | low polyreactivity
29 | QVQHVESGGGLVQAGGSLRLTCAASGSTFVNYAMGWYRQAPGKERELVAAITANGGRTYYADSVKGRFTISRDNAKNTVYLQMNSLKPEDTAVYYCNTESNLYRRRRNYWGQGTQVTVSS | low polyreactivity
30 | QVQLVESGGGLVQAGGSLRLSCAASGRTFIGYAMGWYRQAPGKERELAAGISWSGGSTYYADSVKGRFTISRDNAKNTVYLQMNSLKPEDTAVYYCAARGRWSTEYGYWGQGTQVTVSS | low polyreactivity
31 | QVQLVESGGGLVQAGGSLRLSCAASGFTITRYAMGWYRQAPGKERELVARITGRGGGTFYADSVKGRFTISRDNAKNTVYLQMNSLKPEDTAVYYCNTDYGSSYNYWGQGTQVTVSS | high polyreactivity
32 | QVQLVESGGGLVQAGGSLRLSCAASGLIFNKYAMGWYRQAPGKERELVATIRRDGSTNYADSVKGRFTISRDNAKITVYLQLNILKPEDTAVYYCAADSYYTRDDYWGQGTQVTVSS | high polyreactivity
33 | QVQLVESGGGLVQAGGSLRLSCAASGSTFIGYAMGWYRQAPGKERELVAAISRRGSRTYYADSVKGRFTISRDNAKNTVYLQINSLKPEDTAVYYCNRDYREYGYAYSGRYYWGQGTQVTVSS | high polyreactivity
34 | QVQLVESGGGLVQAGGSLRLSCAASGRIFGPNAMGWYRQAPGKERELVAAISTSGGRTYYADSVKGRFTISRDNAKNTVYLQMNSLKPEDTAVYYCAADRSRWGQGTQVTVSS | high polyreactivity
35 | QVQLVESGGGLVQAGGSLRLSCADSGFTFWRYAMGWYRQAPGKERELVAAISWRGSSTYYADSVKGRFTISRDIAKNTVYLQMNSLKPEDTAVYYCARYQSTYDSTYNYWGQGTQVTVSS | high polyreactivity
36 | QVQLVESVGGLVQAGGSLRLSCAASGSNFRGYAMGWYRQAPGKERELVAAISWSGVSTYYADSVKGRFTISRDNAKNTVYLQMNSLKPEDTAVYDCAAGYSSAYLRFGYWGQGTQVTVSS | low polyreactivity
37 | QVHLVESGGGLVQAGGSLRLSCAASGVIFSSYAMGWYRQAPGKERELVAAISTGDGSTTYADSVKGRFTISRDNAKNTVYLQMNSLIPEDTAVYYCNVKYRSSYRTDFDYWGQGTQVTVSS | low polyreactivity
38 | QVQLVESGGGLVQAGGSLRLSCAASGLTFVYYVLGWYRQAPGKESELVAAITDGGSTYYADSVKGRFTISRDNAKNTVYLQMNSRKPEDTAVYYCAADYYWLYGRWGVDYWGQGTQVTVSS | high polyreactivity
39 | QVQLQESGGGLVQAGGSLRLSCAASGYISTFSSEMGWYRQAPGKERELVASIAPGCTTSYADSVKGRFTISRDNAKNTVYLQMHRLKPEDTAVYYCAVDYTVPASFGYWGQGTQVTVSS | high polyreactivity
40 | QVQLVESGGGLVQAGGSLRLSCAASGSIITYYAMGWYRQAPGKERELVAAISSGGSTYYADSVKGRFTISRDNAKSTVYLQMNRLKPEDSAVYYCNADLLDYWSFILFDYWGQGSQVTVSS | high polyreactivity
41 | QVQLVESGGGLVQAGGSLRLSCAASGSTFAWYAMGWYRQAPGKERELVATISSSGVSTFYADSVKGRFTISRDNAKNTVYLQMNSLKPEDTAVYYCNRYGNSYYFAPGPLYNYWGQGTQVTVSS | high polyreactivity
42 | QDQLVESGGGLVQAGGSLRLICAASGRTFYQYVMGWYRQAPGKERELVAAIRSGGNTYYADSVKGRFTISRDNAKNTVYLQMNSLKPEDTAVYYCAVQRGYYRYRLGRYGYDYWGQGTQVTVSS | high polyreactivity
43 | QVQLVESGGGLVQAGGSLRLSCAASGRTFWFYAMGWYRQAPGKERELVASITSGGGTNYADSVKGRFTISRDNAKNTVYLQMNRLKPEDTAVYYCAAARKLDATTYYKFDYWGQVTQVTVSS | high polyreactivity
